Measured values taken from paper doi:10.1101/2023.06.15.545061 (2023).

How the values were obtained:
[1] = target: T1, biotinylated 10-mer C-terminal PBM peptide of DGKζ (human, UniProt Q13574, biotin attached to the N-terminus via a trioxatridecan-succinamic acid (ttds) linker); assay: nHU-MS, printed as pKapp 5.71
[2] = target: T1, biotinylated 10-mer C-terminal PBM …; assay: nHU-MS, printed as pKapp 4.98
[3] = target: T1, biotinylated 10-mer C-terminal PBM …; assay: nHU-MS, printed as pKapp 4.96
[4] = target: T1, biotinylated 10-mer C-terminal PBM …; assay: nHU-MS, printed as pKapp 5.01

T1 sequence (Q13574 whole entry, looked up, tested part not stated): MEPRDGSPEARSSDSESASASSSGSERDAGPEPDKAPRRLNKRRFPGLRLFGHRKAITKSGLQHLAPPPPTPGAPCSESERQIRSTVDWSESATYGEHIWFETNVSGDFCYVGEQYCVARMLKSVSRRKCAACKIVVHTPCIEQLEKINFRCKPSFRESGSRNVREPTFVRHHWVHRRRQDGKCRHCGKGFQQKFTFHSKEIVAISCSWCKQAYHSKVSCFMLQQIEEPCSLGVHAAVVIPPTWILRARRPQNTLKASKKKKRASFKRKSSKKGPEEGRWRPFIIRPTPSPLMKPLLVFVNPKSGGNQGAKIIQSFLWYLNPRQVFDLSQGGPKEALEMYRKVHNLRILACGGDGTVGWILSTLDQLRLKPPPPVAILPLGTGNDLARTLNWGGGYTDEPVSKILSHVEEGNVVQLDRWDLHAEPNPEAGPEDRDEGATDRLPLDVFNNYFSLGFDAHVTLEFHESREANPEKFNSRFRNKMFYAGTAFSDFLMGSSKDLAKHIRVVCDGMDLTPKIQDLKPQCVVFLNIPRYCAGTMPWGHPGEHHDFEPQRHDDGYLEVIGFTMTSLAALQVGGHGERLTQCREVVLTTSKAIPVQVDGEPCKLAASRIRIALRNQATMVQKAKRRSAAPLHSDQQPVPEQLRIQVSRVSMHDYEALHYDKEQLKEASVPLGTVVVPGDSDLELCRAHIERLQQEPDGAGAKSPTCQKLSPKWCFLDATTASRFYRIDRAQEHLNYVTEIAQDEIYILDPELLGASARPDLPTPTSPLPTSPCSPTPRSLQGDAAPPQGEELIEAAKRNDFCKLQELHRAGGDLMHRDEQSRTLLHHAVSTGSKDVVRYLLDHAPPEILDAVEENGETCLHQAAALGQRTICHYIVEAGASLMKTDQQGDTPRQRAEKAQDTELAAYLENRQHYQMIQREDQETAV

B1: MAGI3 (natural protein)
chain: MSKTLKKKKHWLSKVQECAVSWAGPPGDFGAEIRGGAERGEFPYLGRLREEPGGGTCCVVSGKAPSPGDVLLEVNGTPVSGLTNRDTLAVIRHFREPIRLKTVKPGKVINKDLRHYLSLQFQKGSIDHKLQQVIRDNLYLRTIPCTTRAPRDGEVPGVDYNFISVEQFKALEESGALLESGTYDGNFYGTPKPPAEPSPFQPDPVDQVLFDNEFDAESQRKRTTSVSKMERMDSSLPEEEEDEDKEAINGSGNAENRERHSESSDWMKTVPSYNQTNSSMDFRNYMMRDETLEPLPKNWEMAYTDTGMIYFIDHNTKTTTWLDPRLCKKAKAPEDCEDGELPYGWEKIEDPQYGTYYVDHLNQKTQFENPVEEAKRKKQLGQVEIGSSKPDMEKSHFTRDPSQLKGVLVRASLKKSTMGFGFTIIGGDRPDEFLQVKNVLKDGPAAQDGKIAPGDVIVDINGNCVLGHTHADVVQMFQLVPVNQYVNLTLCRGYPLPDDSEDPVVDIVAATPVINGQSLTKGETCMNPQDFKPGAMVLEQNGKSGHTLTGDGLNGPSDASEQRVSMASSGSSQPELVTIPLIKGPKGFGFAIADSPTGQKVKMILDSQWCQGLQKGDIIKEIYHQNVQNLTHLQVVEVLKQFPVGADVPLLILRGGPPSPTKTAKMKTDKKENAGSLEAINEPIPQPMPFPPSIIRSGSPKLDPSEVYLKSKTLYEDKPPNTKDLDVFLRKQESGFGFRVLGGDGPDQSIYIGAIIPLGAAEKDGRLRAADELMCIDGIPVKGKSHKQVLDLMTTAARNGHVLLTVRRKIFYGEKQPEDDSSQAFISTQNGSPRLNRAEVPARPAPQEPYDVVLQRKENEGFGFVILTSKNKPPPGVIPHKIGRVIEGSPADRCGKLKVGDHISAVNGQSIVELSHDNIVQLIKDAGVTVTLTVIAEEEHHGPPSGTNSARQSPALQHRPMGQSQANHIPGDRSALEGEIGKDVSTSYRHSWSDHKHLAQPDTAVISVVGSRHNQNLGCYPVELERGPRGFGFSLRGGKEYNMGLFILRLAEDGPAIKDGRIHVGDQIVEINGEPTQGITHTRAIELIQAGGNKVLLLLRPGTGLIPDHGDWDINNPSSSNVIYDEQSPLPPSSHFASIFEESHVPVIEESLRVQICEKAEELKDIVPEKKSTLNENQPEIKHQSLLQKNVSKRDPPSSHGHSNKKNLLKVENGVTRRGRSVSPKKPASQHSEEHLDKIPSPLKNNPKRRPRDQSLSPSKGENKSCQVSTRAGSGQDQCRKSRGRSASPKKQQKIEGSKAPSNAEAKLLEGKSRRIAGYTGSNAEQIPDGKEKSDVIRKDAKQNQLEKSRTRSPEKKIKRMVEKSLPSKMTNKTTSKEVSENEKGKKVTTGETSSSNDKIGENVQLSEKRLKQEPEEKVVSNKTEDHKGKELEAADKNKETGRFKPESSSPVKKTLITPGPWKVPSGNKVTGTIGMAEKRQ
Kd [1]: 1.95 µM

B2: CASK (natural protein)
chain: MADDDVLFEDVYELCEVIGKGPFSVVRRCINRETGQQFAVKIVDVAKFTSSPGLSTEDLKREASICHMLKHPHIVELLETYSSDGMLYMVFEFMDGADLCFEIVKRADAGFVYSEAVASHYMRQILEALRYCHDNNIIHRDVKPHCVLLASKENSAPVKLGGFGVAIQLGESGLVAGGRVGTPHFMAPEVVKREPYGKPVDVWGCGVILFILLSGCLPFYGTKERLFEGIIKGKYKMNPRQWSHISESAKDLVRRMLMLDPAERITVYEALNHPWLKERDRYAYKIHLPETVEQLRKFNARRKLKGAVLAAVSSHKFNSFYGDPPEELPDFSEDPTSSGLLAAERAVSQVLDSLEEIHALTDCSEKDLDFLHSVFQDQHLHTLLDLYDKINTKSSPQIRNPPSDAVQRAKEVLEEISCYPENNDAKELKRILTQPHFMALLQTHDVVAHEVYSDEALRVTPPPTSPYLNGDSPESANGDMDMENVTRVRLVQFQKNTDEPMGITLKMNELNHCIVARIMHGGMIHRQGTLHVGDEIREINGISVANQTVEQLQKMLREMRGSITFKIVPSYRTQSSSCERDSPSTSRQSPANGHSSTNNSVSDLPSTTQPKGRQIYVRAQFEYDPAKDDLIPCKEAGIRFRVGDIIQIISKDDHNWWQGKLENSKNGTAGLIPSPELQEWRVACIAMEKTKQEQQASCTWFGKKKKQYKDKYLAKHNAVFDQLDLVTYEEVVKLPAFKRKTLVLLGAHGVGRRHIKNTLITKHPDRFAYPIPHTTRPPKKDEENGKNYYFVSHDQMMQDISNNEYLEYGSHEDAMYGTKLETIRKIHEQGLIAILDVEPQALKVLRTAEFAPFVVFIAAPTITPGLNEDESLQRLQKESDILQRTYAHYFDLTIINNEIDETIRHLEEAVELVCTAPQWVPVSWVY
Kd [2]: 10.5 µM

B3: SYNJ2BP (natural protein)
chain: MNGRVDYLVTEEEINLTRGPSGLGFNIVGGTDQQYVSNDSGIYVSRIKENGAAALDGRLQEGDKILSVNGQDLKNLLHQDAVDLFRNAGYAVSLRVQHRLQVQNGPIGHRGEGDPSGIPIFMVLVPVFALTMVAAWAFMRYRQQL
Kd [3]: 11 µM

B4: LIN7C (natural protein)
chain: MAALGEPVRLERDICRAIELLEKLQRSGEVPPQKLQALQRVLQSEFCNAVREVYEHVYETVDISSSPEVRANATAKATVAAFAASEGHSHPRVVELPKTEEGLGFNIMGGKEQNSPIYISRIIPGGIADRHGGLKRGDQLLSVNGVSVEGEHHEKAVELLKAAQGKVKLVVRYTPKVLEEMESRFEKMRSAKRRQQT
Kd [4]: 9.77 µM
